Tested on: OPN expression in Swiss 3T3 fibroblasts
Assay: Induction of OPN expression in fibroblasts by growth factors/cytokines (Western blot)
Format: cell-based
Settings: 8 h; PDGF-BB 20, EGF 100, TGFβ1 10, TGFβ3 10, IL-6 50, TNFα 10 ng/ml
Protocol: Protein samples (20 μg; collected in T-PER® Reagent; PIERCE Biotechnology) were separated on Tris-Glycine Gels (Invitrogen), transferred to PVDF, and blotted according to standard protocols (antibody details are provided above).
Swiss 3T3, J774.1 macrophages, and RBL mast cells were cultured in DMEM+10% fetal calf serum. Primary neutrophils were harvested by peritoneal lavage 4 h post-thioglycollate-induced peritonitis, and primary macrophages were derived from mouse bone marrow and activated with LPS (500 ng/ml).

B1: TGFβ3: growth factor/cytokine, BioVision (protein, UniProt P10600 301-412, looked up)
Transforming growth factor …: ALDTNYCFRNLEENCCVRPLYIDFRQDLGWKWVHEPKGYYANFCSGPCPYLRSADTTHSTVLGLYNTLNPEASASPCCVPQDLEPLTILYYVGRTPKVEQLSNMVVKSCKCS
modifications: Transforming growth factor beta-3
notes: growth factor/cytokine, BioVision
In the case of B1, the “ability to upregulate OPN expression in Swiss 3T3s” value is reported as “not”.

Reference: patent publication US20110038920A1, “WOUND HEALING COMPOSITIONS AND TREATMENTS” (priority 2008, published 2011)
